# B1: C-terminal soluble domain of STOPP (stomatin operon partner protein) PH1510 from Pyrococcus horikoshii (domain or fragment, UniProt O59179 371-441, looked up)
# chain: KARTGKEEMIGLIGTVVEELNPEGMIKVRGELWKARSKFNGKIEKGEKVRVVDMDGLTLIVVRERKEGGEK
# Target: the molecule itself
# Assay: crystal structure
protein,measurement,value
B1,binding result,binds
